US20140248303A1 (ST JUDE CHILDREN S RESEARCH HOSPITAL, published 2014)

B1: CbpA-N (domain N) (other)
chain: ENEGATQVPTSSNRANESQAEQGEQPKKLDSERDKARKEVEEYVKKIVGESYAKSTKKRHTITVALVNELNNIKNEYLNKIVESTSESQLQILMMESRSKVDEAVSKFEKDSSSSSSSDSSTKPEASDTAKPNKPT
notes: On latex microspheres
B2: CbpA-R2 (other)
chain: PEKKVAEAEKKVEEAKKKAEDQKEEDRRNYPTNTYKTLELEIAESDVEVKKAELELVKEEAKEPRNEEKVKQAKAEVESKKAEATRLEKIKTDRKKAEEEAKRKAAEEDKVKEKP
B3: CbpA-R12 (construct containing domain 1 and domain 2) (other)
chain: EPGEKVAEAKKKVEEAEKKAKDQKEEDRRNYPTITYKTLELEIAESDVEVKKAELELVKVKANEPRDEQKIKQAEAEVESKQAEATRLKKIKTDREEAEEEAKRRADAKEQGKPKGRAKRGVPGELATPDKKENDAKSSDSSVGEETLPSPSLKPEKKVAEAEKKVEEAKKKAEDQKEEDRRNYPTNTYKTLELEIAESDVEVKKAELELVKEEAKEPRNEEKVKQAKAEVESKKAEATRLEKIKTDRKKAEEEAKRKAAEEDKVKEK
notes: On latex microspheres

Biological target: T1, 37/67 laminin receptor (LR) (Homo sapiens (Human), UniProt P08865 2-295)
T1 construct: also called LRP
Test: adhesion of construct-labeled latex microspheres to fixed TNF-activated RBCEC6 cells

Binder	bead adherence to RBCEC6 cells, % (compared with full length CbpA-NR12 beads) [%]	binding result
B1	23	no binding
B2	6	no binding
B3	226	–
